Data published in US20260151499A1, “ANTIBODY DERIVATIVE AND USE THEREOF” (TSINGHUA UNIVERSITY, priority 2023, published 2026).
Where a chain is given by its changes, count along the chain named.

T1: CD73 (Homo sapiens, UniProt P21589)
T1 construct: His (Chis) (C); made in house; host or cells: 293 cells
T1 sequence (P21589 27-549 limits assumed): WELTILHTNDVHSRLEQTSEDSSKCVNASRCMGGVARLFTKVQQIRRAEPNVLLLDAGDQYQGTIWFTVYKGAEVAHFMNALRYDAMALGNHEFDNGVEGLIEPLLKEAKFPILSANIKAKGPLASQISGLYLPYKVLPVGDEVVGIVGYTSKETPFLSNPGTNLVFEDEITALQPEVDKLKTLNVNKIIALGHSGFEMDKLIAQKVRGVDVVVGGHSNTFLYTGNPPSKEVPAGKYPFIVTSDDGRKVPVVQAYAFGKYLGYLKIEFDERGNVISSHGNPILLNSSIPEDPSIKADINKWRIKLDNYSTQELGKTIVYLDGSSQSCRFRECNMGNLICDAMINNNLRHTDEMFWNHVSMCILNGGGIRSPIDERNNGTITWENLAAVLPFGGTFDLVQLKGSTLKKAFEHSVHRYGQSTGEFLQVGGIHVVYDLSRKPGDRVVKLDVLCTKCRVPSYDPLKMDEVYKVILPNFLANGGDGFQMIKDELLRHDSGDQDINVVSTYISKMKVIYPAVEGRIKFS

B1: ABN3-2G-BN3: IgG1 antibody ABN3-2G conjugated to BN3 (conjugate)
VH: EVQLVESGGGLVQPGGSLRLSCAASGITFGSYTMSWVRQAPGKGLEWIGTVHYTGKTFYSPSLKSRVTISADTSKNTAYLQMNSLRAEDTAVYYCARGRDFGEPPYVRAFDIWGQGTLVTVSS
VL: DIQMTQSPSSLSASVGDRVTITCQASHDISKYLNWYQQKPGKAPKLLIYDASNLETGVPSRFSGSRSGTDFTLTISSLQPEDFATYYCQQXYTTPPTFGQGTKLEI
modifications: not fully specified; non-natural residues
B2: 10A7-BN3: IgG1 antibody 10A7 conjugated to BN3 (conjugate)
VH: EVQLVESGGGLVQPGGSLRLSCAASGFAFSSYSMSWVRQAPGKGLEWIGSIYYSGSTYYNPSLKSRVTISADTSKNTAYLQMNSLRAEDTAVYYCARNSGFETLDYWGQGTLVTVSS
VL: DIQMTQSPSSLSASVGDRVTITCRASQGISRWLAWYQQKPGKAPNLLIYGASTLQSGVPPRFSGSRSGTDFTLTISSLQPEDFATYYCQQXYTTPPTFGQGTKLEI
modifications: non-natural residues
B3: ABN3-2B-BN3: IgG1 antibody ABN3-2B conjugated to BN3 (conjugate)
VH: EVQLVESGGGLVQPGGSLRLSCAASGFTFSSYWMHWVRQAPGKGLEWVSAVSGSGDSTYYADSVKGRFTISADTSKNTAYLQMNSLRAEDTAVYYCAREGDWGLDYWGQGTLVTVSS
VL: B1 VL with Q24R, H27Q, D28G, S30N, K31N, N34A
modifications: not fully specified; non-natural residues
B4: 5A5-PEG3-ASF: antibody 5A5 conjugated with ASF-PEG3-DBCO (conjugate)
VH: EVQLVESGGGLVQPGGSLRLSCAASGFPFSGHWMHWVRQAPGKGLEWVSGISWNGGTTGYADSVKGRFTISRDNAKNSVYLQMNSLRAEDTAVYYCARDDYGGDSFDSWGQGTLVTVSS
VL: B2 VL with G28S, R31D, N45K, G50A, T53S, P60S
modifications: non-natural residues
notes: antibody 5A5 conjugated with ASF-PEG3-DBCO
B5: 14E6-PEG3-ASF: antibody 14E6 conjugated with ASF-PEG3-DBCO (conjugate)
VH: EVQLVESGGGLVQPGGSLRLSCAASGFTFSNFAMHWVRQAPGKGLEYVSAISGGNGGGTYYADSAKGRFTISADTSKNTAYLQMNSLRAEDTAVYYCAREGNYCLDYWGQGTLVTVSS
VL: B2 VL with G28P, R31D, N45K, L46S, G50D, S52Y, T53N
modifications: not fully specified; non-natural residues
notes: antibody 14E6 conjugated with ASF-PEG3-DBCO

Experiments:
CD73 [1] = target: T1, CD73; assay: Octet BLI affinity for CD73, Ab-BN3 on protein A sensors; format: binding
CD73 [2] = target: T1, CD73; assay: CD73 inhibition, AMP hydrolysis, malachite green phosphate assay; format: biochemical; settings: calculated from the inhibition curves
NaV1.6 = target: T2, NaV1.6 (Homo sapiens, UniProt Q9UQD0); assay: Whole-cell patch clamp, HEK293-NaV1.6 cells; format: cell-based
T2 construct: expressed in transfected cells; host or cells: HEK293

NaV1.2 = target: T3, NaV1.2 (Homo sapiens, UniProt Q99250); assay: Whole-cell patch clamp, HEK293-NaV1.2 cells; format: cell-based
T3 construct: expressed in transfected cells; host or cells: HEK293
T3 sequence (Q99250 whole entry): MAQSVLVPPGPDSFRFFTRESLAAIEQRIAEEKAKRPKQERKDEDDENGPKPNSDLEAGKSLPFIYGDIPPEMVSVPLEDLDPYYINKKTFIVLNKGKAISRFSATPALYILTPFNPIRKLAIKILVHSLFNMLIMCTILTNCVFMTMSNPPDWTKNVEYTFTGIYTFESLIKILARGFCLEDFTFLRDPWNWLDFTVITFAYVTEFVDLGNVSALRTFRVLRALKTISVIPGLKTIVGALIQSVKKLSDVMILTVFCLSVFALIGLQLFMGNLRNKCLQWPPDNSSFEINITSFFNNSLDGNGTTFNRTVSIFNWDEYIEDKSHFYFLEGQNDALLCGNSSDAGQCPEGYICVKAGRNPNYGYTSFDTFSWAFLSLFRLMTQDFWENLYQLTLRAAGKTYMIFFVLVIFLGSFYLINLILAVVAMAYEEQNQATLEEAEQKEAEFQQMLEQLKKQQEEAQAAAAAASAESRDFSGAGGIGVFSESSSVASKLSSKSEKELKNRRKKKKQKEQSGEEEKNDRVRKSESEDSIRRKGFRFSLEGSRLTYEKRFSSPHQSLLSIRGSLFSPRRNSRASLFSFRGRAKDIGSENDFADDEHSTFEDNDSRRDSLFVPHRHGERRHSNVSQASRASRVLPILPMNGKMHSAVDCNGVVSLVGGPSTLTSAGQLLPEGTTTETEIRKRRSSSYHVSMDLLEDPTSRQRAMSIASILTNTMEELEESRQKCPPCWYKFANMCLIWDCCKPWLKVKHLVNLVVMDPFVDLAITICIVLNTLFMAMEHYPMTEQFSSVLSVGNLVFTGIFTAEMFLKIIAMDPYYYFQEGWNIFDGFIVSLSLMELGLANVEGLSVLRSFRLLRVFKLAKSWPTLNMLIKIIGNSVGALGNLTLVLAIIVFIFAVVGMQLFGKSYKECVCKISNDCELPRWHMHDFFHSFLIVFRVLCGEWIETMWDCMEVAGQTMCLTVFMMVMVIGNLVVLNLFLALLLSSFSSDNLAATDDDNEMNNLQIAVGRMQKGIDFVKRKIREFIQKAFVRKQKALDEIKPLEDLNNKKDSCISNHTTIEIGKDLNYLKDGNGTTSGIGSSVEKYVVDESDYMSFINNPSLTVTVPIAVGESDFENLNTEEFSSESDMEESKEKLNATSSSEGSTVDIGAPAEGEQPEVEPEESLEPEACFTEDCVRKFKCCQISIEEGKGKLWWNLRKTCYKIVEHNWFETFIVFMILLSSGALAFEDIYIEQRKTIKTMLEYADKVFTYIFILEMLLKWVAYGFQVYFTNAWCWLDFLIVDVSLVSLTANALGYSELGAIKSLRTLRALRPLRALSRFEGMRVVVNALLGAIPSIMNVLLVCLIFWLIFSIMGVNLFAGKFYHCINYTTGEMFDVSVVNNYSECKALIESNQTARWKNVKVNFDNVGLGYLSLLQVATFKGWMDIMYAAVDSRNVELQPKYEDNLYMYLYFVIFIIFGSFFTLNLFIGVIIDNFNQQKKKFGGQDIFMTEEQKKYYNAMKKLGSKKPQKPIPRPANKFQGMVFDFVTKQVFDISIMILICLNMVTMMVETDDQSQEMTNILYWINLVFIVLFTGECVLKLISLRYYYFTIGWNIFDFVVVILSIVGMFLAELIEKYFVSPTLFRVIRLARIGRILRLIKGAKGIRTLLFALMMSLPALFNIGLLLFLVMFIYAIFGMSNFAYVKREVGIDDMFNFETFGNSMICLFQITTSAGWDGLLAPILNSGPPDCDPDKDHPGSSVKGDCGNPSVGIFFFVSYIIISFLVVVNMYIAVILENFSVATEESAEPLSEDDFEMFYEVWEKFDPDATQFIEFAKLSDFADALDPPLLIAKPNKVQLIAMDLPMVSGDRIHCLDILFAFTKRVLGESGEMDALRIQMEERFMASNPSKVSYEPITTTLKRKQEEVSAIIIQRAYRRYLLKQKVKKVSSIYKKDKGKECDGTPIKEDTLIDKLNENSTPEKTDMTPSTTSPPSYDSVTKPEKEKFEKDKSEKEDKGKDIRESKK

NaV1.7 = target: T4, NaV1.7 (Homo sapiens, UniProt Q15858); assay: Whole-cell patch clamp, HEK293-NaV1.7 cells; format: cell-based; settings: tested up to 500 nM where selectivity
T4 construct: expressed in transfected cells; host or cells: HEK293
T4 sequence (Q15858 whole entry): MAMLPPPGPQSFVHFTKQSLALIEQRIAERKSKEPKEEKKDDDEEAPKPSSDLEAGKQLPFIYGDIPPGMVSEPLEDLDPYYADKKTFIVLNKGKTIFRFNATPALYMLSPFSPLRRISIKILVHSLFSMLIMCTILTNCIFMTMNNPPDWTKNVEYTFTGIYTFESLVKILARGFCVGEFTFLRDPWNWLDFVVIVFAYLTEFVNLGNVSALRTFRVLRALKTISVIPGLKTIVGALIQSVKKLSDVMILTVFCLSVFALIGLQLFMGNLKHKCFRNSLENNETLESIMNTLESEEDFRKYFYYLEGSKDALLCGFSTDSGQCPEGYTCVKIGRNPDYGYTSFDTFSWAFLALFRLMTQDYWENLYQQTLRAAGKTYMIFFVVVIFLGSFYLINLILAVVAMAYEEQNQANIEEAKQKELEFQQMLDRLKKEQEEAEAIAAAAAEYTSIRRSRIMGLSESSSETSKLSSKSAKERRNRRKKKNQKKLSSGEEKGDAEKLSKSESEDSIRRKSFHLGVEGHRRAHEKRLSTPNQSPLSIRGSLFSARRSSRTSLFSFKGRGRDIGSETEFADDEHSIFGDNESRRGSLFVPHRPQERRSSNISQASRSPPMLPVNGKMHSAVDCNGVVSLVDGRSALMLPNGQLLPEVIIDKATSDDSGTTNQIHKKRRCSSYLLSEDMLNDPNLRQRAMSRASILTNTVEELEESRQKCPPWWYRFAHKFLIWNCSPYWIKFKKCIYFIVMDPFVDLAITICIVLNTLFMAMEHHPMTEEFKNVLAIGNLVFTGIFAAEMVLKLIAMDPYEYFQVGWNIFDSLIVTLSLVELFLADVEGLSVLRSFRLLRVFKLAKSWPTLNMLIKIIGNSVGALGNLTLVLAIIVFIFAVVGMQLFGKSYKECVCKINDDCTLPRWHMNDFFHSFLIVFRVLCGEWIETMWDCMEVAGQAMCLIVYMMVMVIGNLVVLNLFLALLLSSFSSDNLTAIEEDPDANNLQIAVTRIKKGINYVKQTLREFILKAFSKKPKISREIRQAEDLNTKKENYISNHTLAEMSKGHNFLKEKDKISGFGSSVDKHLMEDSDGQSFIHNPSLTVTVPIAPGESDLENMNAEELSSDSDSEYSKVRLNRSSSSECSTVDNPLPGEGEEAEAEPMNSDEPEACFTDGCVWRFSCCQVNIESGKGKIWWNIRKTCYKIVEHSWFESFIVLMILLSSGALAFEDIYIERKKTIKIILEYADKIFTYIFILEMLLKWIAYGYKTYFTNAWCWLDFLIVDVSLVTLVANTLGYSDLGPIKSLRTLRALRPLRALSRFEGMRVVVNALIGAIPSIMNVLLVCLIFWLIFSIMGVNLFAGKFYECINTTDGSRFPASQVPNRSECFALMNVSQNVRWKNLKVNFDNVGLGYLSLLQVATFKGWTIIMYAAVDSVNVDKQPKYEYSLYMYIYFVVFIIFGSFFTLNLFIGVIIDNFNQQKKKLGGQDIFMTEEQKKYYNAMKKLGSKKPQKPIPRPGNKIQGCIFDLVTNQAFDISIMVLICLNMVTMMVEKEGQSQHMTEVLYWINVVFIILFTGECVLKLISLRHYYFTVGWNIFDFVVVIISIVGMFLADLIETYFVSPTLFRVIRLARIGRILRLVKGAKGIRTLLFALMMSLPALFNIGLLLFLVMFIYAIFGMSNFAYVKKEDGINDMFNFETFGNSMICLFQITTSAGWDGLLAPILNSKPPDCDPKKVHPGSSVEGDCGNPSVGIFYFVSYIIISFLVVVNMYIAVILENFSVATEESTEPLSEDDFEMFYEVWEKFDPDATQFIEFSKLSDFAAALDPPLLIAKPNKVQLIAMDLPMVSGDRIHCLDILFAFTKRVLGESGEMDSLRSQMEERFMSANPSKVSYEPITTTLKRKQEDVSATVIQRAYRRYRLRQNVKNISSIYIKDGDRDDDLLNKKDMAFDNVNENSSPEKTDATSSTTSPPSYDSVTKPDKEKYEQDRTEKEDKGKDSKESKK

| Molecule | Kdis (CD73 [1]) [s⁻¹] | Kon (CD73 [1]) | inhibitory activity against NaV1.7 (in words) (NaV1.7) | further results |
| --- | --- | --- | --- | --- |
| B1 | 0.000271 | 3.05 × 10^5 1/ms | – | – |
| B2 | 0.000191 | 2.15 × 10^5 1/ms | – | IC90 (CD73 [2]): 2.9 nM |
| B3 | 0.000582 | 1.85 × 10^5 1/ms | – | – |
| B4 | – | – | no inhibitory activity | improvement of NaV1.6 inhibitory activity over ASF-PEG3-DBCO (NaV1.6): more than 20 fold; inhibitory activity against NaV1.2 (in words) (NaV1.2; tested up to 500 nM): no inhibitory activity |
| B5 | – | – | no inhibitory activity | inhibitory activity against NaV1.2 at 100 nM (in words) (NaV1.2; 100 nM Ab-ASF): near-complete inhibition |
